22 sequences from the supplement of paper PMC9170038 can be followed below.

This data set has as its system MS2 coat protein. As to the kind of experiment: apparent KD of MS2 coat protein; designed switch direction (-1 OFF switch, 1 ON switch): -1; higher = weaker reporter binding. The procedure, abridged: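 Transcription of designed RNA switches on Illumina chips was done by stalled E. coli RNA polymerase. SNAP-549-labelled MS2 coat protein was then titrated in doubling steps from 0.7 or 1.5 nM to 3 µM, with steps of 0.8–1.5 h at the lowest and 10–20 min at the highest concentration. The per-design median over clusters of curve-fitted normalised fluorescence is reported as apparent KD.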

The mark [1] stands for this setting: input ligand: microRNA oligo, concentration not stated.
The mark [2] stands for this setting: Eterna round: R95, input ligand: FMN 200 uM.
[3] abbreviates: Eterna round: R95, input ligand: microRNA oligo, concentration not stated.
[4] abbreviates: Eterna round: R95, input ligand: none.

For the sequence “ACAUGAGGAUCACCCAUGUACACGUAAUGGCUCAUGUAGAGUGAGGAUAUGUGAGACGAACGAGCACAGAAGGCACAAGACUGG [Deportation 11 - Jieux - Exclusion NG 3] (Eterna round: R96, puzzle: Exclusion NG 3)”, the “apparent KD of MS2 coat protein” value runs as follows: (input ligand: FMN 200 uM) 36.1 nM; under setting [1], 21.8 nM; (input ligand: none) 45.4 nM.
Consider “GACCUCACUGUAGGAUAUGACCGAUCCAGAGGAUCAGAAGGACAUGAGGAUCACCCAUGUGCGUGGAGGGAACGUAAGAAACAA [Eternabot solution 2] (Eterna round: R96, puzzle: Exclusion NG 1)”, for which the “apparent KD of MS2 coat protein” value (input ligand: FMN 200 uM) came to 323 nM, the “apparent KD of MS2 coat protein” value under setting [1] turned out to be 29.4 nM and the “apparent KD of MS2 coat protein” value (input ligand: none) turned out to be 52.9 nM.
On to “CUUAACUCAGGAUAUGCGGCGACAAACAUGAGGAUCACCCAUGUAAAUUGGUGAACCUGAGCAGAAGGGAGUACAA [EX5 B.2] (Eterna round: R97, puzzle: Exclusion 5)”, for which the “apparent KD of MS2 coat protein” value (input ligand: FMN 200 uM) stood at 66.4 nM and the “apparent KD of MS2 coat protein” value (input ligand: none) amounted to 22.6 nM.
As to “GGAUCGAGUGUGAGGAUAUGCUGGUCCUUGGAUCAGCAGAAGGCACAUGAGGAUCACCCAUGUGAAGACGAUCC [Mat - Exclusion 4 - JL Mod - D73] (Eterna round: R96, puzzle: Brourd's mod of Exclusion 4)”, the “apparent KD of MS2 coat protein” value turned out to be 230 nM (input ligand: FMN 200 uM), 23.1 nM under setting [1] and 28.7 nM (input ligand: none).
In the case of “GCCAGAGCAGGAUAUUCAAUAAUUCACAUGAGGAUCACCCAUGUCGAGCGAAAGCUCGAGGGAGAAGGGCUCUGGC [Fiskers Ex 5 - 6] (puzzle: Exclusion 5)”, the “apparent KD of MS2 coat protein” value by setting is: under setting [2], 14.3 nM; under setting [3], 34.8 nM; under setting [4], 39.4 nM.
For the sequence “AGUCAGGCGGUAGGAUAUCCAAACCGAGUGACCCUUUCAUAACAUGAGGAUCACCCAUGUCGGUGGGAGAAGGGCCGUACGGCA [Mat - Exclusion NG 2 - Mod of JL - D65] (Eterna round: R96, puzzle: Exclusion NG 2)”, the “apparent KD of MS2 coat protein” value (input ligand: FMN 200 uM) came to 410 nM, the “apparent KD of MS2 coat protein” value under setting [1] was 173 nM and the “apparent KD of MS2 coat protein” value (input ligand: none) was determined as 159 nM.
“CCUCAACAGUAGGAUAUCAUCAAACUAUUGUGAUGAGAAGGACUGACAUGAGGAUCACCCAUGUUAACGUGAUA [Exclusion 6 - 6:a] (puzzle: Exclusion 6)”: the “apparent KD of MS2 coat protein” value by setting is: under setting [2], 38.9 nM; under setting [3], 38.4 nM; under setting [4], 44.9 nM.
With “CCCGCAGGCUUUUUGCUCGACAUGAGGAUCACCCAUGUUGUAUGGGUUGUGUGUGUGUGGUGCAUAUAUAUGGUCCU [-25.6, -50.1 kcal, A 16%] (Eterna round: R97, puzzle: Sensor, turn-off variant 1)”, the “apparent KD of MS2 coat protein” value stood at 313 nM (input ligand: FMN 200 uM) and 469 nM (input ligand: none).
With “AUGUGCACGCUGCGAUCCUACAUGAGGAUCACCCAUGUGGUCUGGUGGCGUGGGUCACCGGACUUGGCUCGUCUUGA [salish99_S_TOV1_R5_067] (Eterna round: R97, puzzle: Sensor, turn-off variant 1)”, the “apparent KD of MS2 coat protein” value reads like this: (input ligand: FMN 200 uM) 117 nM; (input ligand: none) 128 nM.
With “UAUAUAUAGUAAGGAUAUGUAUUAAUUUUAUGAACAGAAGGUACUGACAUGAGGAUCACCCAUGUUUUAGUGUGGGCAUGUAGA [JMF's solution 91] (Eterna round: R96, puzzle: Exclusion NG 1)”, the “apparent KD of MS2 coat protein” value under setting [1] amounted to 65.5 nM.
On to “GUACUACAUGAGGAUCACCCAUGUCAGGAUAUUUGAAUUUCAUCAAAAGAUGAAAUUCGGAGAAGGGACAGUAC [Omei Ex1 A7] (Eterna round: R97, puzzle: Exclusion 1)”, for which the “apparent KD of MS2 coat protein” value (input ligand: FMN 200 uM) amounted to 31.1 nM and the “apparent KD of MS2 coat protein” value (input ligand: none) is 21.7 nM.
As to “GCCGGAUAAGUGAGGAUAUACCUAUGGAUACAUAGGUAGAAGGCACAUGAGGAUCACCCAUGUUCCUCUCCGGC [JL-BMX4-4.17 Eli mod] (Eterna round: R97, puzzle: Brourd's mod of Exclusion 4)”, the “apparent KD of MS2 coat protein” value is, setting by setting: (input ligand: FMN 200 uM) 406 nM; (input ligand: none) 30.3 nM.
Regarding “UAUCGCAAGCGAAGAUCCCACAUGAGGAUCACCCAUGUGCUCGUCUUAUAAGGUACUGUGACGAAAGUCACGGUACC [Sensor 3, v1 - 91 v15] (Eterna round: R97, puzzle: Sensor, turn-off variant 1)”, the “apparent KD of MS2 coat protein” value (input ligand: FMN 200 uM) was determined as 31.6 nM and the “apparent KD of MS2 coat protein” value (input ligand: none) was 32.2 nM.
“CCAUAUAACACAGGAUAUCAUCGCAACUGACGUUGAGAAGGGUGACAUGAGGAUCACCCAUGUGAUUUCUCAAUAUUAUACAUC [Prohibition 81 - Jieux - Exclusion NG 1] (Eterna round: R96, puzzle: Exclusion NG 1)”: the “apparent KD of MS2 coat protein” value was determined as 1040 nM (input ligand: FMN 200 uM), 661 nM under setting [1] and 1110 nM (input ligand: none).
With “UACAUGAGGAUCACCCAUGUUUUGUCGUGUAUGGUAUUUAUCUAGGAUAUCAAUUGAAUUAUUUAUGAGAAGGAGAAUAUUAAU [JMF's solution 58] (Eterna round: R96, puzzle: Exclusion NG 3)”, the “apparent KD of MS2 coat protein” value by setting is: (input ligand: FMN 200 uM) 42 nM; under setting [1], 36.4 nM; (input ligand: none) 49 nM.
On to “GGAUAAGGCGAGGAUAUCCAGAAACCCGACAAAGGAGAAGGCGCAACAUGAGGAUCACCCAUGUGGGUGCAUGU [Xeaormara] (puzzle: Exclusion 6)”, for which the “apparent KD of MS2 coat protein” value was 1080 nM under setting [2], 254 nM under setting [3] and 280 nM under setting [4].
Regarding “UUUUUAUAUGAAGGAUAUACUUAACAUGAGGAUCACCCAUGUGGUGUUGUGAGUGAGUGAGUUUAGUAGAAGGUCAAUUCUUAU [JMF's solution 82] (Eterna round: R96, puzzle: Exclusion NG 2)”, the “apparent KD of MS2 coat protein” value runs as follows: (input ligand: FMN 200 uM) 516 nM; under setting [1], 651 nM; (input ligand: none) 395 nM.
As to “AAAAAGCGAGGAUAUGCAUAAGGACCCGGGCGGGAAGUCGGACAUGAGGAUCACCCAUGUAGAAGGCGCAAAAA [Exclss2-V] (puzzle: Exclusion 2)”, the “apparent KD of MS2 coat protein” value reads like this: under setting [2], 25.5 nM; under setting [3], 13.2 nM; under setting [4], 14.4 nM.
With “GCAUGGGCCGUCAGGAUAUAGGCGCCGUGAAGGUAUUAGAAGGGACAUGAGGAUCACCCAUGUAUGAGAAAAGA [Edtioresor] (puzzle: Brourd's mod of Exclusion 4)”, under setting [3], the “apparent KD of MS2 coat protein” value turned out to be 33.7 nM.
Take “AACAAACAUGAGGAUCACCCAUGUGAGGAUAUGCAACAAAACAAAACAAAACAAAACAGCAGAAGGCACACAAC [A-G Solution By Eric] (puzzle: Exclusion 1)”: the “apparent KD of MS2 coat protein” value by setting is: under setting [2], 17.2 nM; under setting [3], 19.2 nM; under setting [4], 14.6 nM.
Take “AGCUGACGAGGAUAUACAUGAGGAUCACCCAUGUUGGUCAAGCGACGAUAGUCGCAAUGUAGAAGGCGUCAGCU [E3/8-A1] (Eterna round: R97, puzzle: Exclusion 3)”: the “apparent KD of MS2 coat protein” value is, setting by setting: (input ligand: FMN 200 uM) 621 nM; (input ligand: none) 547 nM.
As to “UAUGUCUCAGGAGGAUAUCUCCCGGUUGCCGUUAGAGAAGGCUUGAAACAUGAGGAUCACCCAUGUAAAUGGCCCGUCCUCCAA [Atsodibian] (Eterna round: R96, puzzle: Exclusion NG 1)”, the “apparent KD of MS2 coat protein” value (input ligand: FMN 200 uM) is 15.4 nM, the “apparent KD of MS2 coat protein” value under setting [1] turned out to be 9.77 nM and the “apparent KD of MS2 coat protein” value (input ligand: none) is 14.7 nM.
